Like-named read-outs stand apart in the source and are kept apart here.
How the values were obtained:
Assay in all cases: SEC
[1] = target: T1, ACAD9 (non-tagged wild type) (human, UniProt Q9H845 38-621)
T1 sequence: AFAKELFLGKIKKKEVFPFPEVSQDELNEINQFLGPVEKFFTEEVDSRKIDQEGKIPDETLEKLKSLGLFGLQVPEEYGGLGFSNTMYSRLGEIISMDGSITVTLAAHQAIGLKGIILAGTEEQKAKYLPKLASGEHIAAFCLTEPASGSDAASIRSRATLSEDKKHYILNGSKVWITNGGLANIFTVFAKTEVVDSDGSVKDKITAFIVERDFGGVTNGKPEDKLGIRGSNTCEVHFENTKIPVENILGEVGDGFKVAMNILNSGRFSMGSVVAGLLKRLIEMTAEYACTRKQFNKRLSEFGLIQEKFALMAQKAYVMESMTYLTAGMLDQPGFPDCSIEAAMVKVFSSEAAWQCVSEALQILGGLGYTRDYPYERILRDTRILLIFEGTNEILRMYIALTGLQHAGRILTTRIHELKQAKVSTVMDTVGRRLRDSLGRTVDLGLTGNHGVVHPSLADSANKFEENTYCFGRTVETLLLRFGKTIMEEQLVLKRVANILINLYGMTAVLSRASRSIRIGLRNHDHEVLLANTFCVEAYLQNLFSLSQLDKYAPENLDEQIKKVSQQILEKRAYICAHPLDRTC

ACAD9-His6 R532W = target: T2, ACAD9-His6 R532W (human, UniProt Q9H845 38-621, R532W)
T2 sequence: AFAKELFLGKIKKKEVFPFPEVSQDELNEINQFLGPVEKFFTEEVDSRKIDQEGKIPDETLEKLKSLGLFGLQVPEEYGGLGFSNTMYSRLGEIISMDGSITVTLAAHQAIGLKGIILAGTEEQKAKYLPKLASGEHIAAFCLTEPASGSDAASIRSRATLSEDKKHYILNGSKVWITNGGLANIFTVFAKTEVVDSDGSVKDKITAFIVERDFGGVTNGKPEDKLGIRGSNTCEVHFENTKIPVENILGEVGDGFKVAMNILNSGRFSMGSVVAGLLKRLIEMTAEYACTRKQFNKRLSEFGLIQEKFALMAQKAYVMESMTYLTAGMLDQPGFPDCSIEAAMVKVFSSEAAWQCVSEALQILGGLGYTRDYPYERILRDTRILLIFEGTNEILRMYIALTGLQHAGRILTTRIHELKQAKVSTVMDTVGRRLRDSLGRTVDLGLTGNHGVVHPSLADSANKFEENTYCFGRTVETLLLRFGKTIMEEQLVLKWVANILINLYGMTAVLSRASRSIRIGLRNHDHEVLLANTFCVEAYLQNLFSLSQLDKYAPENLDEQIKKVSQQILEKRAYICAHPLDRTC

[2] = target: T1, ACAD9 (non-tagged wild type); remark: listed apart in the source

B1: His6-ECSIT (mature human mitochondrial ECSIT with N-terminal His tag) (natural protein)
chain: SSEQSLVPSPPEPRQRPTKALVPFEDLFGQAPGGERDKASFLQTVQKFAEHSVRKRGHIDFIYLALRKMREYGVERDLAVYNQLLNIFPKEVFRPRNIIQRIFVHYPRQQECGIAVLEQMENHGVMPNKETEFLLIQIFGRKSYPMLKLVRLKLWFPRFMNVNPFPVPRDLPQDPVELAMFGLRHMEPDLSARVTIYQVPLPKDSTGAADPPQPHIVGIQSPDQQAALARHNPARPVFVEGPFSLWLRNKCVYYHILRADLLPPEEREVEETPEEWNLYYPMQLDLEYVRSGWDNYEFDINEVEEGPVFAMCMAGAHDQATMAKWIQGLQETNPTLAQIPVVFRLAGSTRELQTSSAGLEEPPLPEDHQEEDDNLQRQQQGQS
- stoichiometry N [1]: 1 ECSIT monomer per ACAD9 monomer (2:2)
- binding result (ACAD9-His6 R532W): binds
- stoichiometry N [2]: 1 monomer:monomer
